This series relates to Escherichia coli TOP10. Kind of series: shrunken log2 fold change of peptide-encoding DNA abundance (4.5 h post-induction vs induction); higher = less antimicrobial activity (less host growth inhibition). Conditions: time post-induction: 4.5 h; library: site-saturation at positions 5, 18, 19, 20.
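Also: peptides expressed intracellularly from a pBAD plasmid library in pooled LB shake-flask culture, induced with 0.3% L-arabinose, DNA abundance read by NGS, three biological replicates, DESeq2 with apeglm shrinkage.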

As to RRIRLRPPRLPRPRPRPGCWPRP, the “shrunken log2 fold change” value is 0.482.
In the case of RRIRWRPPRLPRPRPRPWHAPRP it was 0.0362; in that of RRIRSRPPRLPRPRPRPDHEPRP, -0.0462.
The result for RRIRCRPPRLPRPRPRPMIIPRP reads -0.18; that for RRIRVRPPRLPRPRPRPWGMPRP, 0.0336; that for RRIRGRPPRLPRPRPRPNHQPRP, 0.0643.
The result for RRIRMRPPRLPRPRPRPVVPPRP reads -0.107; that for RRIRGRPPRLPRPRPRPGWWPRP, 0.113.
Turning to RRIRNRPPRLPRPRPRPMFAPRP, the “shrunken log2 fold change” value is -0.239.
In the case of RRIRNRPPRLPRPRPRPYANPRP, the “shrunken log2 fold change” value was found to be 0.0782.
In the case of RRIRTRPPRLPRPRPRPYTRPRP it was -0.0177; in that of RRIRQRPPRLPRPRPRPQHFPRP, 0.14; in that of RRIRMRPPRLPRPRPRPPAEPRP, 3.68.
The result for RRIRVRPPRLPRPRPRPNGWPRP reads 0.0568; that for RRIRIRPPRLPRPRPRPFGDPRP, -0.0112.
The result for RRIRWRPPRLPRPRPRPSPCPRP reads -0.214; that for RRIRSRPPRLPRPRPRPYCAPRP, -0.698.
On to RRIRLRPPRLPRPRPRPYCDPRP, for which the “shrunken log2 fold change” value is -0.328.
Consider RRIRMRPPRLPRPRPRPHDFPRP, for which the “shrunken log2 fold change” value was 0.143.
The result for RRIRSRPPRLPRPRPRPFHCPRP reads -0.0582; that for RRIRIRPPRLPRPRPRPVQNPRP, -0.425; that for RRIRPRPPRLPRPRPRPYCCPRP, -0.384.
The result for RRIRGRPPRLPRPRPRPMRSPRP reads 0.64; that for RRIRQRPPRLPRPRPRPYSFPRP, -0.141; that for RRIRERPPRLPRPRPRPGDDPRP, -0.152.
In the case of RRIRHRPPRLPRPRPRPDASPRP it was 0.221.
With RRIRCRPPRLPRPRPRPYQGPRP, the “shrunken log2 fold change” value is 0.0299.
The result for RRIRPRPPRLPRPRPRPNIIPRP reads -0.407; that for RRIRYRPPRLPRPRPRPFIQPRP, -0.126.
Turning to RRIRWRPPRLPRPRPRPHRSPRP, the “shrunken log2 fold change” value is -0.243.
In the case of RRIRTRPPRLPRPRPRPKRQPRP it was 0.562; in that of RRIRDRPPRLPRPRPRPIGNPRP, 0.279.
In the case of RRIRVRPPRLPRPRPRPTQYPRP it was 0.166; in that of RRIRRRPPRLPRPRPRPMWLPRP, 0.105; in that of RRIRIRPPRLPRPRPRPPRTPRP, 0.195.
As for RRIRQRPPRLPRPRPRPCAIPRP, the “shrunken log2 fold change” value was -0.0067.
The result for RRIRERPPRLPRPRPRPIADPRP reads 0.13; that for RRIRYRPPRLPRPRPRPHQNPRP, -0.527; that for RRIRPRPPRLPRPRPRPPSYPRP, -0.147.
Take RRIRTRPPRLPRPRPRPSSQPRP: the “shrunken log2 fold change” value was -0.153.
The result for RRIRGRPPRLPRPRPRPQQEPRP reads 0.0132; that for RRIRFRPPRLPRPRPRPQLAPRP, 0.0569.
Regarding RRIRIRPPRLPRPRPRPGLPPRP, the “shrunken log2 fold change” value is 0.209.
In the case of RRIRHRPPRLPRPRPRPLFNPRP it was -0.58.
For the sequence RRIRNRPPRLPRPRPRPLYKPRP, the “shrunken log2 fold change” value was -0.561.
Consider RRIRQRPPRLPRPRPRPNNYPRP, for which the “shrunken log2 fold change” value is -0.53.
RRIRKRPPRLPRPRPRPWVYPRP: the “shrunken log2 fold change” value came to 0.107.
Take RRIRMRPPRLPRPRPRPRHIPRP: the “shrunken log2 fold change” value was determined as 0.0163.
In the case of RRIRHRPPRLPRPRPRPPPSPRP it was 0.87; in that of RRIRIRPPRLPRPRPRPWLDPRP, -0.353.

These data come from the supplement of paper PMC9112550, “Optimization of the antimicrobial peptide Bac7 by deep mutational scanning” (BMC Biology, 2022).
